Measurements published in US12460006B2, “Antibodies against integrin alpha 11 beta 1” (Momenta Pharmaceuticals, Inc., priority 2019, dated 2025).
Numbering of substitutions follows the chain as printed.

T1: I domain of α11β1 (Homo sapiens, UniProt Q9UKX5)
T1 construct: An in-house generated I domain of α11β1 was used; made in house
T1 sequence (Q9UKX5 164-345 limits assumed): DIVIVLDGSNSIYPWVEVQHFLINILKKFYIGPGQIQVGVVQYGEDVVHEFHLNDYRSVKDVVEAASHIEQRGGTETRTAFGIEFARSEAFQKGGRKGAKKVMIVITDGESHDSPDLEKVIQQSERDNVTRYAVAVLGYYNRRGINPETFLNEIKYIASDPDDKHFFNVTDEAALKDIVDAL

B1: 6-B21: mouse anti-α11β1 mAb; VH SEQ ID NO: 123, VL SEQ ID NO: 124 (antibody, V domains shown)
VH: EVQLQQSGPELVKPGASVKISCKASGYTFTDYYMNWVKQSHGKSLEWIGDINPHNGGTSFIQKFKGKATLTVDKSSSTAYMELRSLTSEDSAVYYCAPLGRKEGFAYWGQGTLVTVSA
VL: DTVLTQSPASLVVSLGQRATISCRASKSVSTSGYSYMHWYQQKPGQPPKLLIYLASNLESGVPARFSGSGSGTAFTLNIHPVEEEDAATYYCQHSRELPYTFGGGTKLEIK
B2: 16G7: rabbit anti-α11β1 mAb; heavy chain SEQ ID NO: 159, light chain SEQ ID NO: 160 (antibody)
heavy: METGLRWLLLVAVFKGVQCQEQLVESGGDLVKPGASLTLTCTASGFSFNKNYWMCWVRQAPGKGLEWIGCIYNGDGNTYYASWVNGRFTISKTSSTTVTLQMTSLTVADTAIYFCARLLNMWGPGTLVTVSSGQPKAPSVFPLAPCCGDTPSSTVTLGCLVKGYLPEPVTVTWNSGTLTNGVRTFPSVRQSSGLYSLSSVVSVTSSSQPVTCNVAHPATNTKVDKTVAPSTCSKPMCPPPELPGGPSVFIFPPKPKDTLMISRTPEVTCVVVDVSQDDPEVQFTWYINNEQVRTARPPLREQQFNSTIRVVSTLPIAHQDWLRGKEFKCKVHNKALPAPIEKTISKARGQPLEPKVYTMGPPREELSSRSVSLTCMINGFYPSDISVEWEKNGKAEDNYKTTPTVLDSDGSYFLYSKLSVPTSEWQRGDVFTCSVMHEALHNHYTQKSISRSPGK
light: MDTRAPTQLLGLLLLWLPGARCADIVMTQTPASVEAAVGGTVTIKCQASESIGNALAWYQQKPGQPPKLLIYTAATLASGVPSRFSGSGSGTEFTLTISGVQCDDAATYYCQSYYFTSVSSYGNAFGGGTEVVVKGDPVAPTVLIFPPAADQVATGTVTIVCVANKYFPDVTVTWEVDGTTQTTGIENSKTPQNSADCTYNLSSTLTLTSTQYNSHKEYTCKVTQGTTSVVQSFNRGDC
B3: 6-M8: mouse anti-α11β1 mAb; VH SEQ ID NO: 129, VL SEQ ID NO: 130 (antibody, V domains shown)
VH: QVQLQQPGAELVMPGASVKLSCKASGYTFTNYWMHWVKQRPGQGLEWIGEIDPSDSYTNYNQKFKGKATLTVDKSSSTAYMQLSSLTSEDSAVYYCTRQGSTYAWGQGTSVTVSS
VL: DIVMTQAAFSNPVTLGTSASISCRSSKSLLHSNGITYLYWYLQKPGQSPQLLIYQMSNLASGVPDRFSSSGSGTDFTLRISRVEAEDVGVYYCAQNLELPPTFGGGTKLEIK
B4: 6-O12: mouse anti-α11β1 mAb; VH SEQ ID NO: 117, VL SEQ ID NO: 118 (antibody, V domains shown)
VH: EVKLEESGGGLVQPGGSMKLSCAASGFTFSDAWMDWVRQSPEAGLEWVAEIRNKAHNPATYYAESVKGRFTISRDDSKSSVYLQMNSLRAEDTGIYYCTLVAPDAMDYWGQGTSVTVSS
VL: DIVMSLSPSSLAVSVGEKVTMSCKSSQSLLYSRNQKNYLAWYQQKPGQSPKLLIYWASTRASGVPDRFTGSGSGTDFTLTISSVKAEDLAVYYCQQYYSYPYTFGGGTKLEIK
B5: 3-G5: mouse anti-α11β1 mAb; VH SEQ ID NO: 135, VL SEQ ID NO: 136 (antibody, V domains shown)
VH: QVQLQQSGAELARPGASVKLSCKASGYTFTSYGISWVKQRTGQGLEWIGEIFPRSSNTYYNEKFKGKATLTADKSSSTVYMEFRSLTSEDSAVYFCAREGGLAWFAYWGQGTLVTVSA
VL: DVVMTQTPLTLSVTIGQPASISCKSSQSLLYTNGNTYLNWLLQRPGQSPKRLIYLVSKLDSGIPDRFSGSGSGTDFTLRISRVEAEDLGVYYCLQSTHFPFTFGSGTKLEIK
B6: 10-F23: mouse anti-α11β1 mAb; VH SEQ ID NO: 125, VL SEQ ID NO: 126 (antibody, V domains shown)
VH: QVTLKESGPGILQPSQTLSLTCSFSGFSLSTFAMGVGWIRQPSGKGLEWLAHIWWDDDKYYNPALKSRLTISKDTSKNHVFLKIANVDTADTATYYCARMPLTFYFDYWGQGTTLTVSS
VL: DVLLTQTPLSLPVSLGDQASISCRSSQSIVHSNGHTYLEWYLQKPGQSPKLLIYKVSNRFSGVPDRFSGSGSGTDFTLKISRVEAEDLGVYYCFQGSHVPFTFGGGTKLEIK
B7: 6-A12: mouse anti-α11β1 mAb; VH SEQ ID NO: 127, VL SEQ ID NO: 128 (antibody, V domains shown)
VH: B6 VH with S30R, H79Q
VL: B6 VL with L4M, H35N, N58T

System: human pulmonary fibroblasts (HPFs)
Assay: FACS antibody binding to human pulmonary fibroblasts
Conditions: binding Yes/No
Description: (§1) Human Pulmonary Fibroblasts (ScienCell) were cultured in complete Fibroblast Growth Medium (ScienCell) until 80% confluent in T-150 flasks. Cells were washed and harvested using Accutase. Cells were seeded into T-150 flasks at 7,500 cells/cm^2 in complete FGF and cultured for 72 hours. Cells were then washed and starved in serum reduced medium for 24 hours. After starvation, cells were treated with TGFβ-1 (R&D Systems) for 72 hours. Cells were harvested using Accutase and seeded in 96-well conical bottom plates. Cells were blocked with Heat Inactived Fetal Bovine Serum (Gibco) for 30 minutes at 4° C. Cells were then incubated with anti-α11 antibodies at the doses described in each figure for 30 minutes at 4° C. A human anti-α11 antibody (Creative BioLabs) was included as a positive control as well as the appropriate IgG isotype negative controls. Cells were washed twice and incubated with PE conjugated secondary antibodies specific to the IgG class of the anti-α11 antibodies being tested for 30 minutes at 4° C. Cells were washed twice and fixed in 1% PFA for 30 minutes. Cells were acquired on a FACS Verse […]. Data were analyzed by gating on single cells and determining the geometric Mean Fluorescence Intensity (gMFI) in the PE channel for each sample.
(§2) Binding to a physiologically relevant primary human cell type was also tested. Human pulmonary fibroblasts (HPF) and TGFβ treatment were used to induce a fibroblast-to-myofibroblast transition (FMT), giving rise to myofibroblasts (MF). […] Additionally, HPFs express α11 and α2β1, other collagen binding receptors, which means that HPFs can be to test cross-reactivity of antibodies of interest.

Row | HPF FACS | Molecule
1 | No | B1
2 | No | B2
3 | No | B3
4 | No | B4
5 | No | B5
6 | No | B6
7 | No | B7

System: Human Pulmonary Fibroblasts
Assay: Fibroblast-to-Myofibroblasts Transition (FMT), αSMA expression
Assay type: cell-based
Conditions: TGFβ-induced FMT
Description: Human Pulmonary Fibroblasts (ScienCell) were cultured in complete Fibroblast Growth Medium (ScienCell) until 80% confluent. Cells were washed and harvested using Accutase. Cells were seeded onto tissue culture-treated 96 well plates at 20,000 cells/well in complete Fibroblast Growth Medium. After 24 hours, cells were washed and starved in serum reduced medium for an additional 24 hours. After starvation, cells were treated with TGFβ-1 (R&D Systems) with or without anti-α11 antibodies. A polyclonal rabbit anti-human α11 antibody was used as a positive control. Appropriate IgG isotype controls were also included. After 48 hours, cells were harvested, fixed, permeabilized and stained with AlexaFluor488 Labeled Anti-αSMA (α-smooth muscle actin) (Invitrogen). Cells were acquired on a FACS Verse (Benton Dickson) to determine expression levels of αSMA. Data were analyzed by gating on single cells and determining the geometric Mean Fluorescence Intensity (gMFI) in the FITC channel for each sample. gMFI for each sample was normalized to the untreated control and presented as % inhibition.
In addition to the binding abilities described above, it is important for an anti-α11β1 antibody to inhibit the fibroblast-to-myofibroblast transition (FMT). It is now appreciated that myofibroblasts are a heterogeneous cell population, existing in different activation states, with the main function of producing and contracting collagen extracellular matrix (ECM). FMT is a multi-step event that is controlled by a changing mechanical environment in tissues undergoing repair. TGFβ is one of the potent factors that potentiates this process and alpha smooth muscle actin (αSMA) is one of the main markers that becomes overexpressed when fibroblasts are undergoing the transition to becoming myofibroblasts. The presence of αSMA enhances fibroblast contraction and guides myofibroblast activation through an intracellular feedback loop. Because αSMA is the main molecular marker of myofibroblasts, the ability of the novel anti-α11β1 mAbs to inhibit αSMA expression in TGFβ-induced FMT was tested.

Row | Molecule | inhibition of αSMA expression / FMT
8 | B2 | inhibit FMT

Same assay, conditions: Yes/No

Row | Molecule | Inhibition of FMT
9 | B1 | No
10 | B2 | Yes
11 | B3 | No
12 | B4 | No
13 | B5 | No
14 | B6 | No
15 | B7 | No

System: myofibroblasts (MF)
Assay: FACS antibody binding to myofibroblasts
Design: species or system human
Conditions: binding Yes/No
Description: as §1, §2

Row | MF FACS | Molecule
16 | No | B1
17 | Yes | B2
18 | No | B3
19 | No | B4
20 | No | B5
21 | Yes | B6
22 | Yes | B7

System: CHO-K1 cells expressing human α11
Assay: Cell adhesion inhibition (xCelligence), type I collagen
Assay type: cell-based
Conditions: CHO-K1 hu α11 cells
In short: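 CHO-K1 cells expressing human α11 (0.6×10^6 cells/mL) were preincubated with mAbs across a concentration range for 20 min at 37° C, then seeded on wells coated with 100 ng/mL type I collagen and blocked with 3% BSA. Impedance-based adhesion was recorded over 6 h, and maximum adhesion was compared with untreated control.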

Row | Molecule | inhibition of cell adhesion to type I collagen
23 | B2 | didn't have an effect on cell adhesion

Same assay, conditions: Yes/No

Row | Molecule | Inhibition of CHO-K1 adhesion to collagen
24 | B1 | No
25 | B2 | No
26 | B3 | No
27 | B4 | No
28 | B5 | No
29 | B6 | Yes
30 | B7 | Yes

Molecular target: T1, I domain of α11β1
Assay: ELISA binding to in-house generated I domain of α11β1
Conditions: Yes/No
Description: 0.25 μg/mL of target antigen (recombinant human or mouse α11β1) was plated in a 96-well plate over night at 4° C. Plates were washed (PBS with 0.1% Tween-20), blocked (PBS with 2% BSA and 0.05% Tween-20) for 1 hour at room temperature and incubated with a range of antibody concentrations for 1 hour at room temperature. Subsequently, plates were washed and incubated with biotinylated anti-rabbit/mouse/human IgG in a 1:1000 dilution buffer and incubated for 1 hour at room temperature. After washing the plates, Streptavidin HRP was added at 1:200 in dilution buffer and incubated for 1 hour at room temperature. Ultra TMB ELISA substrate solution was added and the plates incubated for 5 minutes on a plate shaker. The reaction was stopped by adding stop solution to each well and plates were read at 450 nm.
22 Data was also collected to determine whether antibodies of interest bind to the I domain of α11β1. An in-house generated I domain of α11β1 was used. […] Mouse antibodies 10-F23, 10-L15, 7-O8, 6-A12, 9-G05 and 9-E16 and rabbit antibodies 7-H12 and 2-D3 were also tested for binding against the in-house generated α11031 domain. FIGS. 3A and 3B show graphs illustrating binding data from exemplary mAbs.

Row | I Domain binding | Molecule
31 | No | B1
32 | No | B2
33 | No | B3
34 | No | B4
35 | No | B5
36 | Yes | B6
37 | Yes | B7
